Assay results published in PMC7938364, “Multimeric antibodies from antigen-specific human IgM^+ memory B cells restrict Plasmodium parasites” (The Journal of Experimental Medicine, 2021).

Target: T1, recombinant P. falciparum 3D7 MSP1 (p19 fragment) (Plasmodium falciparum (3D7))
T1 construct: merozoite surface protein 1 of P. falciparum 3D7, the 19 kDa C-terminal fragment (MSP1-19, p19); Coated on ELISA plates and used in solution in the BLI without avidity; The ELISA methods say only 'recombinant P. falciparum MSP1'; also called MSP1-19; merozoite surface protein 1 (the 1-19 fragment)
T1 chain: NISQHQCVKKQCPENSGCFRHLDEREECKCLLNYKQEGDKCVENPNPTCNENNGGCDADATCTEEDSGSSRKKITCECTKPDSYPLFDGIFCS
Assay: ELISA; plates coated with recombinant MSP1, AMA1 or OVA (each 5 µg/ml in PBS); purified recombinant antibodies at a maximum of 5-50 nM with 10-fold serial dilutions, 2 h room temperature or overnight 4°C; HRP anti-human IgG1
Settings: both partners purified

B1: MaliM03 m-IgG (antibody, V domains shown)
VH: QVQLQQWGAGLLKPSETLSLTCAVYGGSFSGYYWTWIRQPPGKGLEWIGEINNSGKTNYNPSLKSRVSISIDTSKNQFSLKVTSVTAADTAVYYCARGPQQHLEPPFDYWGHGTLVTVSS
VL: QSVLTQPPSASGTPGQRVTISCSGSNSNIATNYVCWYQQYPGTAPKPLIYRTDQRPSGVPDRFSGSKSGTSASLAISGLRSEDEADYYCATWDDSLSAWVFGGGTKLTVL
notes: VH of MaliM03, as the VH of m1; immunoglobulin gamma-1 heavy chain constant region (vector AbVec-hIgG1) with L309C; human IgM tail piece, 18 amino acids, added to the IgG constant region; as the light chain of m1; Self-assembles into multimers (negative-stain EM); also called multimeric IgG; modified IgG antibody; source: 293T cells, transient transfection, purified from supernatant (HiTrap …)
fold better binding than its monomeric form: ~10 fold
